# IntAct's records for PubMed 39938803
# B1: Retinoblastoma-associated protein (Homo sapiens), P06400 (parent)
# chain: MPPKTPRKTAATAAAAAAEPPAPPPPPPPEEDPEQDSGPEDLPLVRLEFEETEEPDFTALCQKLKIPDHVRERAWLTWEKVSSVDGVLGGYIQKKKELWGICIFIAAVDLDEMSFTFTELQKNIEISVHKFFNLLKEIDTSTKVDNAMSRLLKKYDVLFALFSKLERTCELIYLTQPSSSISTEINSALVLKVSWITFLLAKGEVLQMEDDLVISFQLMLCVLDYFIKLSPPMLLKEPYKTAVIPINGSPRTPRRGQNRSARIAKQLENDTRIIEVLCKEHECNIDEVKNVYFKNFIPFMNSLGLVTSNGLPEVENLSKRYEEIYLKNKDLDARLFLDHDKTLQTDSIDSFETQRTPRKSNLDEEVNVIPPHTPVRTVMNTIQQLMMILNSASDQPSENLISYFNNCTVNPKESILKRVKDIGYIFKEKFAKAVGQGCVEIGSQRYKLGVRLYYRVMESMLKSEEERLSIQNFSKLLNDNIFHMSLLACALEVVMATYSRSTSQNLDSGTDLSFPWILNVLNLKAFDFYKVIESFIKAEGNLTREMIKHLERCEHRIMESLAWLSDSPLFDLIKQSKDREGPTDHLESACPLNLPLQNNHTAADMYLSPVRSPKKKGSTTRVNSTANAETQATSAFQTQKPLKSTSLSLFYKKVYRLAYLRLNTLCERLLSEHPELEHIIWTLFQHTLQNEYELMRDRHLDQIMMCSMYGICKVKNIDLKFKIIVTAYKDLPHAVQETFKRVLIKEEEYDSIIVFYNSVFMQRLKTNILQYASTRPPTLSPIPHIPRSPYKFPSSPLRIPGGNIYISPLKSPYKISEGLPTPTKMTPRSRILVSIGESFGTSEKFQKINQMVCNSDRVLKRSAEGSNPPKPLKKLRFDIEGSDEADGSKHLPGESKFQQKLAEMTSTRTRMQKQKMNDSMDTSNKEEK
# Tests used:
# e2f1_human E2F1, Q01094 [1] = variants of: B1; settings: with e2f1_human E2F1, Q01094
# e2f1_human E2F1, Q01094 [2] = variants of: B1; settings: with e2f1_human E2F1, Q01094; remark: listed apart in the source
# ve7_hpv16 E7, P03129 [3] = variants of: B1; settings: with ve7_hpv16 E7, P03129
# ve7_hpv16 E7, P03129 [4] = variants of: B1; settings: with ve7_hpv16 E7, P03129; remark: listed apart in the source
# e2f1_human E2F1, Q01094, sequence (Q01094 whole entry): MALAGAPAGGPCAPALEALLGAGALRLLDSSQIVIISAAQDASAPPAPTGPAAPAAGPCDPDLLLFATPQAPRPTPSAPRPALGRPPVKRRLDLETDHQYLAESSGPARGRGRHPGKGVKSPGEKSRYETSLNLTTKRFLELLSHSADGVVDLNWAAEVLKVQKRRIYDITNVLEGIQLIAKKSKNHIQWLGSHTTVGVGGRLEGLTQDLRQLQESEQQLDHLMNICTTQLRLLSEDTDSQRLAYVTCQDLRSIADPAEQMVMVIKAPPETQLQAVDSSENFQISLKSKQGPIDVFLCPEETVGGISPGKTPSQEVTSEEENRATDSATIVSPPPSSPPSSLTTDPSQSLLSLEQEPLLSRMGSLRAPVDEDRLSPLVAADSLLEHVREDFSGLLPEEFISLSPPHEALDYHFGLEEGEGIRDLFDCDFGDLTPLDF
# ve7_hpv16 E7, P03129, sequence (P03129 whole entry): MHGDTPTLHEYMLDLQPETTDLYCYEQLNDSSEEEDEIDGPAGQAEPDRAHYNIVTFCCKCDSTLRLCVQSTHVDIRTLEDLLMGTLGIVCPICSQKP
Variant,"effect of a mutation on the interaction (e2f1_human E2F1, Q01094 [1])","effect of a mutation on the interaction (e2f1_human E2F1, Q01094 [2])","effect of a mutation on the interaction (ve7_hpv16 E7, P03129 [3])","effect of a mutation on the interaction (ve7_hpv16 E7, P03129 [4])"
S751Y,decreasing interaction strength,disrupting interaction strength,disrupting interaction strength,
S751C,decreasing interaction strength,disrupting interaction strength,decreasing interaction strength,
S588F,decreasing interaction strength,,with no effect,decreasing interaction strength
S612P,decreasing interaction strength,,decreasing interaction strength,
H585Y,decreasing interaction strength,,decreasing interaction strength,
T620M,decreasing interaction strength,,decreasing interaction strength,
E675Q,decreasing interaction strength,,decreasing interaction strength,
D697E,decreasing interaction strength,disrupting interaction strength,decreasing interaction strength,
I703F,decreasing interaction strength,disrupting interaction strength,decreasing interaction strength,disrupting interaction strength
I703V,decreasing interaction strength,disrupting interaction strength,decreasing interaction strength,
T687I,decreasing interaction strength,,decreasing interaction strength,
M704V,decreasing interaction strength,disrupting interaction strength,decreasing interaction strength,
I679F,decreasing interaction strength,,decreasing interaction strength,
R763T,decreasing interaction strength,,decreasing interaction strength,
V754G,decreasing interaction strength,,decreasing interaction strength,
R741H,decreasing interaction strength,,decreasing interaction strength,
R741C,decreasing interaction strength,,decreasing interaction strength,
R741S,decreasing interaction strength,,decreasing interaction strength,
M695I,decreasing interaction strength,disrupting interaction strength,decreasing interaction strength,
T738I,decreasing interaction strength,disrupting interaction strength,decreasing interaction strength,disrupting interaction strength
S671F,decreasing interaction strength,,decreasing interaction strength,
M761L,decreasing interaction strength,,increasing interaction strength,

Variant,"effect of a mutation on the interaction (e2f1_human E2F1, Q01094 [1])","effect of a mutation on the interaction (e2f1_human E2F1, Q01094 [2])","effect of a mutation on the interaction (ve7_hpv16 E7, P03129 [3])","effect of a mutation on the interaction (ve7_hpv16 E7, P03129 [4])"
D604G,decreasing interaction strength,,decreasing interaction strength,
Y606C,decreasing interaction strength,,decreasing interaction strength,
R656W,decreasing interaction strength,,decreasing interaction strength,
R656Q,disrupting interaction strength,,decreasing interaction strength,
V654L,decreasing interaction strength,,decreasing interaction strength,
R621C,,decreasing interaction strength,decreasing interaction strength,
R621P,decreasing interaction strength,,decreasing interaction strength,
R621H,decreasing interaction strength,,decreasing interaction strength,
R621S,decreasing interaction strength,,decreasing interaction strength,
T664A,decreasing interaction strength,,decreasing interaction strength,
T638S,with no effect,decreasing interaction strength,decreasing interaction strength,
H673P,decreasing interaction strength,disrupting interaction strength,decreasing interaction strength,
H673Y,decreasing interaction strength,,decreasing interaction strength,
H699P,decreasing interaction strength,,decreasing interaction strength,
R611S,decreasing interaction strength,,with no effect,decreasing interaction strength
P595L,decreasing interaction strength,,decreasing interaction strength,
D584Y,decreasing interaction strength,,decreasing interaction strength,
S648T,decreasing interaction strength,,decreasing interaction strength,
R668C,increasing interaction strength,decreasing interaction strength,increasing interaction strength,decreasing interaction strength
R668H,increasing interaction strength,with no effect,decreasing interaction strength,
H686Y,decreasing interaction strength,,with no effect,decreasing interaction strength
E693A,decreasing interaction strength,,decreasing interaction strength,
